8 molecules from US20210130494A1 (ALETA BIOTHERAPEUTICS, published 2021) can be followed below.

The target in test [1] is T1, CD20 on stable transfectant line 293-CD20 (UniProt P11836 1-297).
T1 construct: whole, on cells; also called CD20 expressing 293 cells
T1 sequence (looked up): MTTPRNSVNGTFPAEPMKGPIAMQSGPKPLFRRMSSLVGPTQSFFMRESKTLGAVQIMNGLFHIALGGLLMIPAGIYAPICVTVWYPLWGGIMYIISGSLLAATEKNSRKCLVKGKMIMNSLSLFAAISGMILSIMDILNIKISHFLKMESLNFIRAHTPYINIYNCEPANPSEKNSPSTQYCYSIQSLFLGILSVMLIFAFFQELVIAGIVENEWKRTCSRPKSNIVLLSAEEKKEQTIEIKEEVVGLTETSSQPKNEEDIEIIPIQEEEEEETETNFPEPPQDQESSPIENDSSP
Nature of the test: flow cytometry, 293-CD20 cells, FMC63-PE or anti-HIS-PE. (In flow cytometry, cells or beads pass a laser one at a time.)

The target of test [2] is T1, CD20 on stable transfectant line …. Kind of test: flow cytometry, 293-CD20 cells, 200 µl fusion protein, FMC63-PE.
Test [3] shares this target. Nature of the test: flow cytometry, 293-CD20 cells, FMC63-PE.
In test [4] the target is T2, Human BCMA Protein, Fc Tag (R&D Systems, Cat#193-BC-050) (human, UniProt Q02223 1-54).
T2 construct: Bought reagent; also called Human BCMA-Fc; BCMA-Fc
T2 sequence (looked up): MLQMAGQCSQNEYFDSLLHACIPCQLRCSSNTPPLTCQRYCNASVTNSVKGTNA
Kind of test: ELISA, plate-bound Human BCMA-Fc (FIG. 66A), anti-HIS-HRP.

For test [5], the target named is T3, FMC63 CAR-Flag (construct #140) on transfected 293T cells.
T3 construct: FMC63 VL-VH-Flag-CD28 linker/transmembrane/ICD-4-1BB ICD-CD3z ICD; also called anti-CD19 FMC63 CAR; CAR19
T3 sequence (chain, as listed by the source limits assumed): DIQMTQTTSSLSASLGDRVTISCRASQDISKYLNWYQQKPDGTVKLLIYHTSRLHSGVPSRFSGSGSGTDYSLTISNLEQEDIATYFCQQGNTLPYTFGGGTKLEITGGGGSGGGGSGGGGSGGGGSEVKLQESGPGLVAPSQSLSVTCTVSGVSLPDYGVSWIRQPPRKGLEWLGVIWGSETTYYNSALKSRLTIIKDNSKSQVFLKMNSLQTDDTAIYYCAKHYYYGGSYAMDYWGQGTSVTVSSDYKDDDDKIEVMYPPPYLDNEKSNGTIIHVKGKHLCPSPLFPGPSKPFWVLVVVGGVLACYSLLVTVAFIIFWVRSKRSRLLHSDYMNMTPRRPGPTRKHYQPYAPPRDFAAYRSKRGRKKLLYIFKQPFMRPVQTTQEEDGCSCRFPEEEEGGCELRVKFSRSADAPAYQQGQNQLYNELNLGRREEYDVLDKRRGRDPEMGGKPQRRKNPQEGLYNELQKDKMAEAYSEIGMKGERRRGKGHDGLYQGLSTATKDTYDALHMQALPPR
Nature of the test: flow cytometry, 293T cells transfected with #140, supernatant or 5 ug/ml purified #151/#152, anti-mouse Fc gamma-PE.

B1: CD19-D1+2-Leu16 scFv (VH/VL) (construct #83) (other)
chain: PEEPLVVKVEEGDNAVLQCLKGTSDGPTQQLTWSRESPLKPFLKLSLGLPGLGIHMRPLAIWLFIFNVSQQMGGFYLCQPGPPSEKAWQPGWTVNVEGSGELFRWNVSDLGGLGCGLKNRSSEGPSSPSGKLMSPKLYVWAKDRPEIWEGEPPCLPPRDSLNQSLSQDLTMAPGSTLWLSCGVPPDSVSRGPLSWTHVHPKGPKSLLSLELKDDRPARDMWVMETGLLLPRATAQDAGKYYCHRGNLTMSFHLEITARPGGGGSGGGGSGGGGSGGGGSMAQVKLQESGAELVKPGASVKMSCKASGYTFTSYNMHWVKQTPGQGLEWIGAIYPGNGDTSYNQKFKGKATLTADKSSSTAYMQLSSLTSEDSADYYCARSNYYGSSYWFFDVWGQGTTVTVSSGGGGSGGGGSGGGGSDIELTQSPTILSASPGEKVTMTCRASSSVNYMDWYQKKPGSSPKPWIYATSNLASGVPARFSGSGSGTSYSLTISRVEAEDAATYYCQQWSFNPPTFGGGTKLEIKRAAAHHHHHH
notes: C-terminal His tag
On to B1, for which the binding result in test [1] is “binds”.

B2: CD19-ECD-Leu16 scFv (VH/VL) (construct #63) (other)
chain: PEEPLVVKVEEGDNAVLQCLKGTSDGPTQQLTWSRESPLKPFLKLSLGLPGLGIHMRPLAIWLFIFNVSQQMGGFYLCQPGPPSEKAWQPGWTVNVEGSGELFRWNVSDLGGLGCGLKNRSSEGPSSPSGKLMSPKLYVWAKDRPEIWEGEPPCLPPRDSLNQSLSQDLTMAPGSTLWLSCGVPPDSVSRGPLSWTHVHPKGPKSLLSLELKDDRPARDMWVMETGLLLPRATAQDAGKYYCHRGNLTMSFHLEITARPVLWHWLLRTGGWKGGGGSGGGGSGGGGSGGGGSEVQLQQSGAELVKPGASVKMSCKASGYTFTSYNMHWVKQTPGQGLEWIGAIYPGNGDTSYNQKFKGKATLTADKSSSTAYMQLSSLTSEDSADYYCARSNYYGSSYWFFDVWGAGTTVTVSSGSTSGGGSGGGSGGGGSSDIVLTQSPAILSASPGEKVTMTCRASSSVNYMDWYQKKPGSSPKPWIYATSNLASGVPARFSGSGSGTSYSLTISRVEAEDAATYYCQQWSFNPPTFGGGTKLEIKHHHHHH
notes: C-terminal His tag; also called CD19 full-length extracellular domain-anti-CD20 Leu16 scFv VH-VL-His fusion protein
For the molecule B2, the binding result in test [2] is listed as “binds”.

B3: CD19-D1+2-Leu16 scFv (VL/VH) (construct #85) (other)
chain: PEEPLVVKVEEGDNAVLQCLKGTSDGPTQQLTWSRESPLKPFLKLSLGLPGLGIHMRPLAIWLFIFNVSQQMGGFYLCQPGPPSEKAWQPGWTVNVEGSGELFRWNVSDLGGLGCGLKNRSSEGPSSPSGKLMSPKLYVWAKDRPEIWEGEPPCLPPRDSLNQSLSQDLTMAPGSTLWLSCGVPPDSVSRGPLSWTHVHPKGPKSLLSLELKDDRPARDMWVMETGLLLPRATAQDAGKYYCHRGNLTMSFHLEITARPGGGGSGGGGSGGGGSGGGGSDIELTQSPTILSASPGEKVTMTCRASSSVNYMDWYQKKPGSSPKPWIYATSNLASGVPARFSGSGSGTSYSLTISRVEAEDAATYYCQQWSFNPPTFGGGTKLEIKRGGGGSGGGGSGGGGSMAQVKLQESGAELVKPGASVKMSCKASGYTFTSYNMHWVKQTPGQGLEWIGAIYPGNGDTSYNQKFKGKATLTADKSSSTAYMQLSSLTSEDSADYYCARSNYYGSSYWFFDVWGQGTTVTVSSAAAHHHHHH
notes: C-terminal His tag
For the molecule B3, the binding result in test [3] is on record as “no binding (tested: 200 µl)”.

B4: CD19-D1+2-C11D5.3 scFv (VH/VL) (construct #92) (other)
chain: PEEPLVVKVEEGDNAVLQCLKGTSDGPTQQLTWSRESPLKPFLKLSLGLPGLGIHMRPLAIWLFIFNVSQQMGGFYLCQPGPPSEKAWQPGWTVNVEGSGELFRWNVSDLGGLGCGLKNRSSEGPSSPSGKLMSPKLYVWAKDRPEIWEGEPPCLPPRDSLNQSLSQDLTMAPGSTLWLSCGVPPDSVSRGPLSWTHVHPKGPKSLLSLELKDDRPARDMWVMETGLLLPRATAQDAGKYYCHRGNLTMSFHLEITARPGGGGSGGGGSGGGGSGGGGSQIQLVQSGPELKKPGETVKISCKASGYTFTDYSINWVKRAPGKGLKWMGWINTETREPAYAYDFRGRFAFSLETSASTAYLQINNLKYEDTATYFCALDYSYAMDYWGQGTSVTVSSGSTSGSGKPGSGEGSTKGDIVLTQSPPSLAMSLGKRATISCRASESVTILGSHLIHWYQQKPGQPPTLLIQLASNVQTGVPARFSGSGSRTDFTLTIDPVEEDDVAVYYCLQSRTIPRTFGGGTKLEIKGGGGSGGGGSGGGGSHHHHHH
notes: C-terminal His tag
Regarding B4, the binding result in test [4] was “binds”.

B5: anti-FMC63 antibody 136.20.1 (constructs #151/#152) (antibody, V domains shown)
VH: EVKLVESGGGLVQPGGSLKLSCAASGFDFSRYWMSWVRQAPGKGLEWIGEINLDSSTINYTPSLKDKFIISRDNAKNTLYLQMSKVRSEDTALYYCARRYDAMDYWGQGTSVTVSS
VL: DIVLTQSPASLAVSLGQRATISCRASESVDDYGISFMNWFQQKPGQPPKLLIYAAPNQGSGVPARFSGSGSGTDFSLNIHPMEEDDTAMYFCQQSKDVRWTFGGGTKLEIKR
notes: supernatant or purified protein (5 ug/ml); also called anti-FMC63 (anti-Id) antibody; secreted anti-FMC63 antibody
On to B5, for which, in test [5], the binding result was “binds”.

B6: CD19-D1+2-C11D5.3 scFv (VL/VH) (construct #91) (other)
chain: PEEPLVVKVEEGDNAVLQCLKGTSDGPTQQLTWSRESPLKPFLKLSLGLPGLGIHMRPLAIWLFIFNVSQQMGGFYLCQPGPPSEKAWQPGWTVNVEGSGELFRWNVSDLGGLGCGLKNRSSEGPSSPSGKLMSPKLYVWAKDRPEIWEGEPPCLPPRDSLNQSLSQDLTMAPGSTLWLSCGVPPDSVSRGPLSWTHVHPKGPKSLLSLELKDDRPARDMWVMETGLLLPRATAQDAGKYYCHRGNLTMSFHLEITARPGGGGSGGGGSGGGGSGGGGSDIVLTQSPPSLAMSLGKRATISCRASESVTILGSHLIHWYQQKPGQPPTLLIQLASNVQTGVPARFSGSGSRTDFTLTIDPVEEDDVAVYYCLQSRTIPRTFGGGTKLEIKGSTSGSGKPGSGEGSTKGQIQLVQSGPELKKPGETVKISCKASGYTFTDYSINWVKRAPGKGLKWMGWINTETREPAYAYDFRGRFAFSLETSASTAYLQINNLKYEDTATYFCALDYSYAMDYWGQGTSVTVSSGGGGSGGGGSGGGGSHHHHHH
notes: C-terminal His tag
With B6, in test [4], the binding result was “binds”.

B7: C11D5.3 scFv (VH/VL) (construct #90) (scFv)
scFv: QIQLVQSGPELKKPGETVKISCKASGYTFTDYSINWVKRAPGKGLKWMGWINTETREPAYAYDFRGRFAFSLETSASTAYLQINNLKYEDTATYFCALDYSYAMDYWGQGTSVTVSSGSTSGSGKPGSGEGSTKGDIVLTQSPPSLAMSLGKRATISCRASESVTILGSHLIHWYQQKPGQPPTLLIQLASNVQTGVPARFSGSGSRTDFTLTIDPVEEDDVAVYYCLQSRTIPRTFGGGTKLEIKGGGGSGGGGSGGGGSHHHHHH
notes: C-terminal His tag
For the molecule B7, in test [4], the binding result is reported as “binds”.

B8: C11D5.3 scFv (VL/VH) (construct #89) (scFv)
scFv: DIVLTQSPPSLAMSLGKRATISCRASESVTILGSHLIHWYQQKPGQPPTLLIQLASNVQTGVPARFSGSGSRTDFTLTIDPVEEDDVAVYYCLQSRTIPRTFGGGTKLEIKGSTSGSGKPGSGEGSTKGQIQLVQSGPELKKPGETVKISCKASGYTFTDYSINWVKRAPGKGLKWMGWINTETREPAYAYDFRGRFAFSLETSASTAYLQINNLKYEDTATYFCALDYSYAMDYWGQGTSVTVSSGGGGSGGGGSGGGGSHHHHHH
notes: C-terminal His tag
For the molecule B8, the binding result in test [4] is on record as “binds”.
